Each sequence was assayed on Escherichia coli TOP10 (assay: shrunken log2 fold change of peptide-encoding DNA abundance (4.5 h post-induction vs induction); higher = less antimicrobial activity (less host growth inhibition)). Details: time post-induction: 4.5 h; library: site-saturation at positions 5, 18, 19, 20.
RRIRLRPPRLPRPRPRPRLFPRP was tested, and the “shrunken log2 fold change” value was 0.17.
RRIRWRPPRLPRPRPRPQAAPRP was tested, and the “shrunken log2 fold change” value was 0.702.
RRIRSRPPRLPRPRPRPRQRPRP was tested, and the “shrunken log2 fold change” value was 0.293.
In the case of RRIRDRPPRLPRPRPRPFARPRP, the “shrunken log2 fold change” value is reported as 0.579.
For RRIRRRPPRLPRPRPRPWGDPRP, the “shrunken log2 fold change” value was -0.0841.
With RRIRARPPRLPRPRPRPAEYPRP the “shrunken log2 fold change” value was -0.0257.
In the case of RRIRKRPPRLPRPRPRPEHYPRP, the “shrunken log2 fold change” value is reported as 0.0532.
In the case of RRIRLRPPRLPRPRPRPHDIPRP, the “shrunken log2 fold change” value is reported as -0.618.
With RRIRLRPPRLPRPRPRPEWKPRP the “shrunken log2 fold change” value was -0.16.
RRIRIRPPRLPRPRPRPHLYPRP was tested, and the “shrunken log2 fold change” value was -0.241.
For RRIRNRPPRLPRPRPRPETTPRP, the “shrunken log2 fold change” value was 0.0795.
In the case of RRIRWRPPRLPRPRPRPEQFPRP, the “shrunken log2 fold change” value is reported as 0.32.
For RRIRNRPPRLPRPRPRPSRMPRP, the “shrunken log2 fold change” value was -0.454.
In the case of RRIRSRPPRLPRPRPRPQFVPRP, the “shrunken log2 fold change” value is reported as -0.184.
In the case of RRIRQRPPRLPRPRPRPSMPPRP, the “shrunken log2 fold change” value is reported as -0.0542.
For RRIRTRPPRLPRPRPRPKRVPRP, the “shrunken log2 fold change” value was -0.0636.
For RRIRRRPPRLPRPRPRPHTEPRP, the “shrunken log2 fold change” value was -0.0233.
In the case of RRIRERPPRLPRPRPRPWSQPRP, the “shrunken log2 fold change” value is reported as -0.0521.
RRIRTRPPRLPRPRPRPFFTPRP was tested, and the “shrunken log2 fold change” value was -0.118.
With RRIRCRPPRLPRPRPRPWWKPRP the “shrunken log2 fold change” value was -0.334.
In the case of RRIRARPPRLPRPRPRPFDYPRP, the “shrunken log2 fold change” value is reported as -0.245.
With RRIRNRPPRLPRPRPRPPQWPRP the “shrunken log2 fold change” value was 0.315.
In the case of RRIRKRPPRLPRPRPRPMKFPRP, the “shrunken log2 fold change” value is reported as -0.0265.
With RRIRMRPPRLPRPRPRPVQIPRP the “shrunken log2 fold change” value was 0.378.
RRIRRRPPRLPRPRPRPENQPRP was tested, and the “shrunken log2 fold change” value was 0.368.
RRIRNRPPRLPRPRPRPAYAPRP was tested, and the “shrunken log2 fold change” value was -0.236.
In the case of RRIRPRPPRLPRPRPRPDTCPRP, the “shrunken log2 fold change” value is reported as -0.594.
With RRIRQRPPRLPRPRPRPNPVPRP the “shrunken log2 fold change” value was -0.117.
In the case of RRIRMRPPRLPRPRPRPISLPRP, the “shrunken log2 fold change” value is reported as 0.0356.
With RRIRKRPPRLPRPRPRPPKRPRP the “shrunken log2 fold change” value was 1.15.
In the case of RRIRTRPPRLPRPRPRPIARPRP, the “shrunken log2 fold change” value is reported as -0.00992.
With RRIRARPPRLPRPRPRPEYQPRP the “shrunken log2 fold change” value was 0.118.
With RRIRVRPPRLPRPRPRPYHKPRP the “shrunken log2 fold change” value was -0.0829.
RRIRKRPPRLPRPRPRPKWRPRP was tested, and the “shrunken log2 fold change” value was 0.887.
For RRIRSRPPRLPRPRPRPDSVPRP, the “shrunken log2 fold change” value was 0.107.
For RRIRPRPPRLPRPRPRPDHDPRP, the “shrunken log2 fold change” value was -0.306.
RRIRGRPPRLPRPRPRPWNNPRP was tested, and the “shrunken log2 fold change” value was 0.139.
RRIRSRPPRLPRPRPRPYDLPRP was tested, and the “shrunken log2 fold change” value was -0.261.
With RRIRNRPPRLPRPRPRPCDQPRP the “shrunken log2 fold change” value was -0.0229.
In the case of RRIRKRPPRLPRPRPRPGEQPRP, the “shrunken log2 fold change” value is reported as -0.0435.
In the case of RRIRGRPPRLPRPRPRPRYTPRP, the “shrunken log2 fold change” value is reported as 0.178.
With RRIRKRPPRLPRPRPRPKENPRP the “shrunken log2 fold change” value was 0.189.
In the case of RRIRNRPPRLPRPRPRPELVPRP, the “shrunken log2 fold change” value is reported as 0.391.
For RRIRTRPPRLPRPRPRPGDLPRP, the “shrunken log2 fold change” value was -0.0395.
RRIRLRPPRLPRPRPRPVLKPRP was tested, and the “shrunken log2 fold change” value was 0.0956.
RRIRPRPPRLPRPRPRPEYYPRP was tested, and the “shrunken log2 fold change” value was -0.335.
RRIRDRPPRLPRPRPRPKSDPRP was tested, and the “shrunken log2 fold change” value was 0.295.
With RRIRGRPPRLPRPRPRPLFEPRP the “shrunken log2 fold change” value was 0.739.
In the case of RRIRERPPRLPRPRPRPAPIPRP, the “shrunken log2 fold change” value is reported as 0.0258.
For RRIRFRPPRLPRPRPRPEVLPRP, the “shrunken log2 fold change” value was -0.0031.
In the case of RRIRDRPPRLPRPRPRPYTDPRP, the “shrunken log2 fold change” value is reported as 0.0446.
RRIRHRPPRLPRPRPRPAKWPRP was tested, and the “shrunken log2 fold change” value was -0.0376.
With RRIRFRPPRLPRPRPRPRKAPRP the “shrunken log2 fold change” value was 0.182.
With RRIRARPPRLPRPRPRPFCCPRP the “shrunken log2 fold change” value was 0.206.
For RRIRNRPPRLPRPRPRPNVHPRP, the “shrunken log2 fold change” value was -0.309.
In the case of RRIRERPPRLPRPRPRPVRRPRP, the “shrunken log2 fold change” value is reported as -0.172.
For RRIRTRPPRLPRPRPRPPQQPRP, the “shrunken log2 fold change” value was 0.211.
With RRIRLRPPRLPRPRPRPFARPRP the “shrunken log2 fold change” value was -0.00783.
In the case of RRIRHRPPRLPRPRPRPMRHPRP, the “shrunken log2 fold change” value is reported as -0.0546.
For RRIRGRPPRLPRPRPRPPLEPRP, the “shrunken log2 fold change” value was 1.2.
In the case of RRIRSRPPRLPRPRPRPAMPPRP, the “shrunken log2 fold change” value is reported as 0.206.
For RRIRKRPPRLPRPRPRPNSWPRP, the “shrunken log2 fold change” value was 0.222.
With RRIRKRPPRLPRPRPRPGSDPRP the “shrunken log2 fold change” value was 0.737.
With RRIRPRPPRLPRPRPRPQWAPRP the “shrunken log2 fold change” value was 0.052.
RRIRPRPPRLPRPRPRPVSCPRP was tested, and the “shrunken log2 fold change” value was -0.095.
In the case of RRIRYRPPRLPRPRPRPGWYPRP, the “shrunken log2 fold change” value is reported as -0.344.
With RRIRARPPRLPRPRPRPCRGPRP the “shrunken log2 fold change” value was -0.1.
RRIRSRPPRLPRPRPRPSMGPRP was tested, and the “shrunken log2 fold change” value was -0.0521.
For RRIRHRPPRLPRPRPRPCLWPRP, the “shrunken log2 fold change” value was -0.0157.
In the case of RRIRCRPPRLPRPRPRPGRWPRP, the “shrunken log2 fold change” value is reported as 0.434.
With RRIRDRPPRLPRPRPRPTDLPRP the “shrunken log2 fold change” value was -0.0718.
RRIRVRPPRLPRPRPRPCMWPRP was tested, and the “shrunken log2 fold change” value was 0.0384.
For RRIRARPPRLPRPRPRPYGWPRP, the “shrunken log2 fold change” value was 0.0617.
In the case of RRIRARPPRLPRPRPRPQQQPRP, the “shrunken log2 fold change” value is reported as 0.946.
With RRIRFRPPRLPRPRPRPIKDPRP the “shrunken log2 fold change” value was -0.234.
For RRIRERPPRLPRPRPRPCSTPRP, the “shrunken log2 fold change” value was -0.702.
For RRIRIRPPRLPRPRPRPWPRPRP, the “shrunken log2 fold change” value was 0.277.
For RRIRYRPPRLPRPRPRPQRVPRP, the “shrunken log2 fold change” value was -0.393.
In the case of RRIRGRPPRLPRPRPRPYWYPRP, the “shrunken log2 fold change” value is reported as -0.211.
RRIRARPPRLPRPRPRPLEMPRP was tested, and the “shrunken log2 fold change” value was 0.75.
With RRIRMRPPRLPRPRPRPMQAPRP the “shrunken log2 fold change” value was 3.02.
With RRIRDRPPRLPRPRPRPQVKPRP the “shrunken log2 fold change” value was -0.0431.
With RRIRTRPPRLPRPRPRPHLWPRP the “shrunken log2 fold change” value was 0.0316.
With RRIRYRPPRLPRPRPRPCSSPRP the “shrunken log2 fold change” value was -0.941.
For RRIRARPPRLPRPRPRPTPSPRP, the “shrunken log2 fold change” value was 0.791.
In the case of RRIRYRPPRLPRPRPRPASYPRP, the “shrunken log2 fold change” value is reported as -0.156.
For RRIRCRPPRLPRPRPRPLRAPRP, the “shrunken log2 fold change” value was 1.02.
In the case of RRIRQRPPRLPRPRPRPGNSPRP, the “shrunken log2 fold change” value is reported as -0.391.
For RRIRVRPPRLPRPRPRPGMHPRP, the “shrunken log2 fold change” value was -0.00805.
For RRIRMRPPRLPRPRPRPGIIPRP, the “shrunken log2 fold change” value was -0.0597.
With RRIRKRPPRLPRPRPRPCPTPRP the “shrunken log2 fold change” value was 0.0658.
RRIRIRPPRLPRPRPRPRVNPRP was tested, and the “shrunken log2 fold change” value was -0.603.
With RRIRCRPPRLPRPRPRPKMNPRP the “shrunken log2 fold change” value was -0.415.
With RRIRERPPRLPRPRPRPLSFPRP the “shrunken log2 fold change” value was 0.329.
RRIRGRPPRLPRPRPRPPRMPRP was tested, and the “shrunken log2 fold change” value was 0.608.
With RRIRERPPRLPRPRPRPEAYPRP the “shrunken log2 fold change” value was -0.0132.
In the case of RRIRERPPRLPRPRPRPHLYPRP, the “shrunken log2 fold change” value is reported as -0.858.
For RRIRCRPPRLPRPRPRPYHMPRP, the “shrunken log2 fold change” value was -0.56.
In the case of RRIRPRPPRLPRPRPRPIMHPRP, the “shrunken log2 fold change” value is reported as -0.0526.
With RRIRDRPPRLPRPRPRPFCLPRP the “shrunken log2 fold change” value was 0.0132.
RRIRHRPPRLPRPRPRPCITPRP was tested, and the “shrunken log2 fold change” value was -0.472.
RRIRHRPPRLPRPRPRPQMDPRP was tested, and the “shrunken log2 fold change” value was -0.106.
RRIRVRPPRLPRPRPRPRWYPRP was tested, and the “shrunken log2 fold change” value was -0.232.
In the case of RRIRLRPPRLPRPRPRPHSGPRP, the “shrunken log2 fold change” value is reported as -0.0238.
RRIRERPPRLPRPRPRPWPYPRP was tested, and the “shrunken log2 fold change” value was 0.00489.
For RRIRLRPPRLPRPRPRPNCHPRP, the “shrunken log2 fold change” value was -0.156.
RRIRGRPPRLPRPRPRPEGDPRP was tested, and the “shrunken log2 fold change” value was 1.94.
For RRIRVRPPRLPRPRPRPFCRPRP, the “shrunken log2 fold change” value was -0.215.
RRIRARPPRLPRPRPRPPFVPRP was tested, and the “shrunken log2 fold change” value was 1.42.
For RRIRDRPPRLPRPRPRPNRDPRP, the “shrunken log2 fold change” value was -0.0372.
In the case of RRIRWRPPRLPRPRPRPRWEPRP, the “shrunken log2 fold change” value is reported as 0.238.
For RRIRRRPPRLPRPRPRPFCFPRP, the “shrunken log2 fold change” value was 0.218.
With RRIRRRPPRLPRPRPRPIINPRP the “shrunken log2 fold change” value was -0.207.
With RRIRIRPPRLPRPRPRPIQNPRP the “shrunken log2 fold change” value was -0.225.
In the case of RRIRQRPPRLPRPRPRPTIQPRP, the “shrunken log2 fold change” value is reported as 0.0369.
RRIRNRPPRLPRPRPRPAWNPRP was tested, and the “shrunken log2 fold change” value was -0.0495.
With RRIRARPPRLPRPRPRPYKDPRP the “shrunken log2 fold change” value was -0.348.
With RRIRIRPPRLPRPRPRPASHPRP the “shrunken log2 fold change” value was -0.106.
In the case of RRIRMRPPRLPRPRPRPQNCPRP, the “shrunken log2 fold change” value is reported as 0.0712.
In the case of RRIRWRPPRLPRPRPRPEDDPRP, the “shrunken log2 fold change” value is reported as 1.19.
In the case of RRIRCRPPRLPRPRPRPQQAPRP, the “shrunken log2 fold change” value is reported as 0.239.
RRIRLRPPRLPRPRPRPDWQPRP was tested, and the “shrunken log2 fold change” value was -0.0564.
RRIRARPPRLPRPRPRPACMPRP was tested, and the “shrunken log2 fold change” value was 0.313.
For RRIRLRPPRLPRPRPRPCHVPRP, the “shrunken log2 fold change” value was -0.412.
In the case of RRIRNRPPRLPRPRPRPINGPRP, the “shrunken log2 fold change” value is reported as -0.262.

Source: the supplement of paper PMC9112550, “Optimization of the antimicrobial peptide Bac7 by deep mutational scanning” (BMC Biology, 2022)
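Further: peptides expressed intracellularly from a pBAD plasmid library in pooled LB shake-flask culture, induced with 0.3% L-arabinose, DNA abundance read by NGS, three biological replicates, DESeq2 with apeglm shrinkage.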
